# Source: the nanobody polyreactivity screen of Harvey et al. (2022)
# Assay: yeast display, Sf9 membrane polyspecificity reagent, FACS + sequencing; frameworks hold sequencing errors
# How it was run: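 Sorting gates, low and high (top ~1%), were placed on anti-HA fluorescence to track expression and on streptavidin fluorescence to track reagent binding. A clone's polyreactivity label is taken from the gate it came out of. The reagent was 10% biotinylated, detergent-solubilized Sf9 membrane, applied for 1 hour at 4 °C to galactose-induced yeast display cells.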
row,Sequence,polyreactivity (PSR sort gate)
1,QVQLVESGGGLVQAGGSLRLSCAASGSTFYVNTMGWYRQAPGKERELVAAINWRGGSTYYADSVKWRFTISRDNAKNTVYLQMNSLKPEDTAVYYCAAYGFYRYVTAYIYDMDYWGQGTQVSVSS,low polyreactivity
2,QVQLVESGGGLVQAGGSLRLSCAASGRTIEQYDMGWYRQAPGKDRELVAAISWRGGGTYYADSVKGRFTISRDNAKNTVYLQMNSLKPEDTAVYYCAKKSHTTDEGYDYWGQGTQVTVSS,low polyreactivity
3,QVQLVESGGGLVQAGGSLRISCAASGSIFATYAMGWYRQAPGKERELVAAISWSSGSTYYADSVKGRFTISRDNAKNTVYLQMNSLNPEDTAVYYCNKDWLAYDSLRVTSTIAFDYWGQGSQVTVSS,low polyreactivity
4,QVQLVESGGGLVQAGGSLRLSCAASGSTFWYAMGWYRQAPGKERELVAAITARGGRTYYADSVKGRFTISRDNAKHTVYLQLISLKPEDTAVYYCARLSYAGGQWIIGKYDYWGQGTQVTVSS,high polyreactivity
5,QVQLEETRGCLVQAGGSLRLSCAASGIILYAYAMGWYRQAPRKERELVAAITRRGGRTYYADSVKGRFTISRDNAKYTVYLQMNSLKPVDTAVYYGATVQSGRVRTYDYWGQGTLVTVSS,high polyreactivity
6,QVQLVESGGCLVQAGRSHRLSCAASGRIFYGYALGWYRQAPGKERELVAAITRSSSTYYADSVKGRFTISRDNAKNTVYLQMNSLKPEDTAVYYCNAYSWYGYDYWGQGTQVTVSS,high polyreactivity
7,QVQLVESGGGLVQAGGSLRLICAASGFIFPDYTMGWYRHAPGKERELVAAINVSGGSTYYADSVKGRFTISRDHAKNTVYLQMNSLKPEDTAVYYCAAVGGRFVRRSTMDYWGQGTQVTVSS,low polyreactivity
8,QVQLVESGGGLVQAGGSLRLSCAASGSIYVPNDMGWYRQAPGKEREFVAAITESDGSTYYADSVKGRFTISRDNAKNTVYLQMNSLKPEDTAVYYCATDSTGVTIVHFDYWGQGTQVTVSS,low polyreactivity
9,QVQLVESGGGLVQAGGSLRLSCAASGRAFKRYAMGWYRQAPGKERELVAAITRSGGSTYYADSVTGRFTISRDKAKNTVYLQMNSLKPEDTAVYYCATRSYNNELEYWGQGTQVTVSS,high polyreactivity
10,QVQLVESGGGLVQAGGSLRLSCAASGFNFRWYAMGWYRQAPGKESEFVAAITWRGGRTYYADSVKGRFTISRDNAKNTVYLQMNSLKPEDTAVYYCNAVYQYWHYSEGNYWGQGTQVTVSS,low polyreactivity
11,QVQLVESGGGLVQAGGSLRLSCAASGFIFRLYAMGWYRQAPGKERELVAAITWSGGSTYYADSVKGRFTISRDNAKNTVYLQMNSLKPEDTAVYYCAAYATKNAFEYWGQGTQVTVSS,high polyreactivity
12,QVQLVESGGGLFQAGVSLRLSCAASGSTIGVNAMGWSRKAPGKERELVAAISRGGGRTYYADSVKWRFTISRDIAKKTVYLQMICLKPEDTAVYYCNTDFGARMGYWGQGTEVTVSS,high polyreactivity
13,QVQLVESGGGLVQAGGSLRLSCAASGITFIPNAMGWYRQAPGKERELVAAISISGGRTYYADSVKGRFTISRDNAKNTVYLQMNSLKPEVTAVYYCAVDSWSRVQGWLAHNYDYWGQGTQVTVSS,low polyreactivity
14,QVQLVESGGGLVQAGGSLRLSCAASGRTFVYNTMGWYRQAPGKERELVASISSTGGNTYYSDSVKGRFTISRDNAKNTVYLQMNSLKPEDTAVYYCAAGAWTRGQYYYWGQRTQVTVSS,high polyreactivity
15,QVQLVESGGGLVQAGGSLRLSCAASGIIFGKYAMGWYRPAPGKDRELVAAINYSGSTYYADSVKGRFTISRDNAKNTVYLQMNSLKPEDTAVYYCAARNRTFFQPTYYYWGQGTQVTVSS,high polyreactivity
16,QVQLVESGGGFVQAGGSLRLSCAASGSIFGSYAMGWYRQAAGKERELVPDISSGGSTNYADSVKGRFTISRDNAKYTVYLQMNSLKPEDTAVYYCNADDPAGYLYWWGSWLESDYWGQGTQVTVSS,low polyreactivity
17,QVQLVESGGGLVQAGGSLRLSCGASGRTVGGNAMGWERPAPGQERELVAAITNSASTYADSVKGRFTISRDNAQNTVYLLMNSLKPEDTAGSYCAARTLPRVYRNTFGYWGQGTQVTVSS,low polyreactivity
18,QVQLRESGCGLVQAGGNLRLSCAASGNIFDADIMGWYGQAPGKERELVASITEGGSTNYADSVRCRFTISRDNAKNTVYLQMISLKPEDTAVYYCTAIAYPDIPTYFDHDSDYFYWGQGTQVTVSS,high polyreactivity
19,QVQLVESGGGLVQAGGSLRLSCAASGRTFLRNTMGWYRQAPGKERELVAAISRSGATTYYADSVKGRFTISRDNAKNTVYLQMNSLKPADTAVYYCAALGQGRTSATSFVDYEYWGQGTQVTVSS,high polyreactivity
20,QVQLVESGGGVVQAGGSLRLSCAASGSTFGINCYGMYRQAPGKERELVAGISVSGGSTYYADSVKGRFTISRDNAKNTVYLKMNSLKPEDSAVYYCNRDTTVFLIYSYGYWGQGTQVTVSS,low polyreactivity
21,QVQLVESGGGLVQAGGSLRLSCAASGSIFGTYAMGWYRQAPGKEREMVARITSGGSTNYADSVKGRFTISRDNAKNTVFLQMNSLKPEDTAVYYCAARQYHWYLPSYWYRYDYWGQGTLVTVSS,high polyreactivity
22,QDQLVESGGGLVQAGGSLRLSCAASGSTFHLYAMGWYRQAPGKERELVAAITRRGSDTYYADSVKGRFTISRDNAKNTVYLQMNSLKPEDTAVYYCAARDRHPVWGQGTQVTVSS,low polyreactivity

row,Sequence,polyreactivity (PSR sort gate)
1,QVQLVESGGGLVQAGGSLRLSCAASGRTFFRYVMGWYRQAPGKERELVAAISRSGGSTYYADSVKGRFTISRDNAKITVYLQMNSLKTEDTAVYYCNSVARSTVVPTEFDYWGQGTQVTVSS,high polyreactivity
2,QVQLVESGGGLVQAGGSLRLSCAASGSIFTYNAMGWYRQAPGKERELVAAITGDDITNYADSVKGRFTISRDNAKNTVYLQMNSLKPEYTAVYYCARDQWVFGSSPVQAGEYWGQGTQVTVSS,low polyreactivity
3,QVQLVESVGRLVQAGGSLRLSCDASGSIFYYAMGWYRQAPGKERELVAAITWRGGRTYYADSVKGRFTITRDNEKNTVYLQLNSLKPEDTAVYNCNAVAPCKYNHWGQGTQVTVSS,high polyreactivity
4,QVQLVESGGGLVQAGGSLRLSCAASRSIFSQYSRGCYRQAPGKERELVATITWRGGSNTNYADSVKGRFTISRDNAKNTVYLQMNSLKPEDTAVYYCNAAFPYHYRFDYWGQGTQVTVSS,low polyreactivity
5,QVQLVESGGGLVQAGGSLRLSCAASGFIFGLNALGWYRPAPGKERELDAAIRSASSTNYADSVKGRFTISRDNAKNTVFLQMNSLKPEDTAVYYCAAEYVTYQQGFWGYDYWGQGTQVTVSS,low polyreactivity
6,QVQLVESGGGLVQAGGSLRLSCAASGRIFIRAMGCYTQAPGKERELVAGITNGGITYYADSVKGRFTISRDNAKTTVYLQMNSLKPEDTAVYSCNARSRSVLYKYDYWGQGTQETVSS,low polyreactivity
7,QVQLVESGGGLVQAGGSLRLSCAASGSTFRYYAMGRYRQAPGKERELVAVISTSGNTYYADSVKGRFTISRDNAKNTVYLQMNSLKPEDTAGYYCAAGGVGGQISQEYDYWGQGTQVTVSS,low polyreactivity
8,QVQLVESGGGLVQAGGSLRLSCAASGLTFVNSTMGWYRQAPGKEWEFVAAITSSGGSSTYYADSVKGRFTISRDNAKNTVYLQMNSLKPEDTAVYDCAAGFSRYVDIVILTVYTGDYWGQGTQVTVSS,low polyreactivity
9,QVQLVESGGGLVQAGGSLRLSCAASGRTFYYYARGWYRQAPGKEREVVASITSGDGTYYADSVQGRFTISRDYAQNTVYLQMNSLKPEATAVYYCAADIFYKFSYYPWYPYRDYYYWGQGTQVTVSS,low polyreactivity
10,QVQLVESGGGLVQAGGSLRLSCPASGRILWFYAMGWYRQAPGKERELVAAISWNGGSTYYADSVKGRFTISRDNAKNTVYLQMNSLKPEDTAVYYCNKDPSVEWWFDYWGQGTQVTVSS,low polyreactivity
11,QVQLVESGGGLVQAGGSLRLSCAASGNTFSQYAMGWYRQAPGKERELLAAISGSGGDTYYADSVKGRFTISRDNAKNTVYLQMNIMKPEDTAVYYCNADQESVFYEDYDYWGQGTQVTVSS,low polyreactivity
12,QVQLLESGGGLVQAGGSLRLSCAPSGFTFLYYAMGWYIQAPGKERELVAVISRSGGRTYYADSVKGRFTISRDNAKNTVYLLMNSLKPEDTAVYYCAAALGVALNDYWGQGTQVNVSS,high polyreactivity
13,QVQLVESGGGLVQAGGRLRLSCAASGSTCGPYTLGWYRQAPGTEREVVATISSGGSTYYADSVKWRFTISRDNAKNTVYLQMNSLKPEDTAVYFCNKDFFYLRTWRSVYEFEYWGQGTQVTVSS,low polyreactivity
14,QVQLVESGGGLVQAGGSLRLSCAASGFIFSSYAMGWYRQAPGKERELVAAITSRGGSTYYADSVKGRFTISRDNAKNTVYLQMNSLKPEDTAVYYCNAVVTKYAKSRFLYYYWGQGTQVTVSS,high polyreactivity
15,QVQLVESGGGLVQAGGSLRLSCAASGSTFLRYDMGWYRQAPGKDRELVAAINWSGGGTSYADSVKGRFTISRDNAKNTVYLQMNSLKPEDTEVYYCAAYFRYSYYWSEYWGQGTQVTVSS,high polyreactivity
16,QVQLVESGGGIVQAGGSLRLSCAASGRIFYSYAMGWYRQAPGKERELVATISSGGSTNYADSVKGRFTISRDNAKNTVYLQMNSLKPEDTAVYYCGRQSLRYSYVSRDYWGQGSQVTVSS,low polyreactivity
17,QVQLVESGGGLVQAGGSLRLSCAASGSTLQNNAMGRYRQAPGKERELVAAISVSDGITYYADSVKGRFTISRDNAKNTVYLQMNSLKPEDTAVYSFAADYSSPWQAVQGDDYWGQGTQVTVSS,low polyreactivity
18,QVQLVESGGGLVQAGGSLRLSCAASGRTFYINAMGWYRQAPGKERELVAGINSRGGSTYADSVKGRFTISRDNAKNTVYLQMNSLNPEDTAVYYCNARRKYLGYNYWGQGTQVTVSS,high polyreactivity
19,QVQLVESGGGLVQAGGSLRLSCAASGFTIGDNAMGWSRQAPGKERELVAAITWSGGSTYYADSVKGRFTISRDNAKNTVYLQMNSLKPEDTAVYYCAADKLRELDYWGQGTEVTVSS,low polyreactivity
20,QVQLVESGGGLVQAGGSLRLSCAASGITFDSYAMGWYRQAPGKERELVAAISYSGGSTYYADSVKGCFTISRDNAKNTVYLQMNSLKPEDTAVYYCAAASDDDYDYWGQGTQVTVSS,low polyreactivity
21,QVQLVESGGGLVQAGGSLRLSCAASGRIFGNYAMGWYRQAPGKERELVAAISGGGSTYYADSVKGRFTISRDNAKNTVYLQMNSLKPEDTAVYYCAARFLWSVFGRKGGFWGQGTQVTVSS,low polyreactivity
